Where no end group is shown, it is not given here. [ ]: non-standard residue; d: D form. Pip = O=C(O)[C@@H]1CCCCN1; AEEA = NCCOCCOCC(=O)O

The target of assay [1] is T1, antiplasmin-cleaving enzyme (APCE) (human, UniProt Q12884 24-760, Natural plasma glycoprotein; glycans are not carried by the letters. The active enzyme is known as a homodimer; one chain is given.).
T1 construct: The range 24-760 is derived from the statement that APCE lacks the first 23 residues of FAP; also called α2-antiplasmin cleaving enzyme; APCE/FAP
T1 sequence: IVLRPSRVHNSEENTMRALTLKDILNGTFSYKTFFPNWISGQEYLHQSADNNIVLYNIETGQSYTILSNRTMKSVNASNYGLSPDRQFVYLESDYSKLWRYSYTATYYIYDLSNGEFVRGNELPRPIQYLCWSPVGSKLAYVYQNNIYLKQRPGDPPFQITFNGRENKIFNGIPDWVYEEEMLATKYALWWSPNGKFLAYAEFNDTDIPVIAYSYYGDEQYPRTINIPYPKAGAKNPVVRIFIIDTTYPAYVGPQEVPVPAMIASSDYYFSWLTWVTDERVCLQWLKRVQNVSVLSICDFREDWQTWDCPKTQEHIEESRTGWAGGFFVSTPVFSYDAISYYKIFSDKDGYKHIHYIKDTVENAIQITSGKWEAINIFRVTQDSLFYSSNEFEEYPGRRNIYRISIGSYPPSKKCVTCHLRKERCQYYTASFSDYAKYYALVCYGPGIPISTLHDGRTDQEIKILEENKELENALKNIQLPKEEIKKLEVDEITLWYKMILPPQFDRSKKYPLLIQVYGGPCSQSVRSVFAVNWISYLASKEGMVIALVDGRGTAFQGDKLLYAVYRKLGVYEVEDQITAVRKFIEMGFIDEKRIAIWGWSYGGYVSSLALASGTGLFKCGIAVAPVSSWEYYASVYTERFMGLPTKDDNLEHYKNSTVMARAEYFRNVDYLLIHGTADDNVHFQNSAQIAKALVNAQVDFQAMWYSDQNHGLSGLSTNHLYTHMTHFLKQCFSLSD
The assay is described as follows: inhibition of APCE activity, AMC fluorogenic substrate.

For assay [2], the target named is dipeptidyl peptidase IV (DPPIV). Kind of assay: inhibition of DPPIV activity, AMC fluorogenic substrate.
The target is the same in assay [3]. Kind of assay: ratio of Ki for DPPIV to Ki for APCE/FAP.
For assay [4], the target named is T1, antiplasmin-cleaving enzyme (APCE). The assay is described as follows: inhibition of APCE activity, AMC fluorogenic substrate, competitive fit. As for the experimental part: Enzyme assays. APCE or DDPIV was incubated in 25 mM sodium phosphate buffer, pH 7.5, containing 1.0 mM EDTA and 4% methanol in a total volume of 200 μl for 20 min at 22° C., using fluorescent substrates […]-AMC (SEQ ID NO.:4) (12.5-100 μM); […]-AMC (SEQ ID NO.:5) (12.5-100 μM); Z-Gly-Pro-AMC (25-200 μM); or GP-AMC (62.5-1000 μM). […] Fluorescence was monitored with time at excitation and emission wavelengths of 360 and 460 nm using a black-sided, 96-well plate in a BIO-TEK FL600 fluorescence plate reader. For standard curves, dilutions of AMC (7-amino-4-methylcoumarin) were prepared in the same assay buffer and corresponding fluorescence was measured. The substrates in five different concentrations were mixed with four different concentrations of inhibitors around the expected Ki values; the enzyme was added and enzymatically released AMC fluorescence was recorded. Competitive inhibition was established by Lineweaver-Burk plot. Therefore, enzyme kinetic parameters were computed by fitting data to the following equation, employing the program PRISM, GraphPad: […]

dipeptidyl peptidase IV (DPPIV), sequence (P27487 29-766): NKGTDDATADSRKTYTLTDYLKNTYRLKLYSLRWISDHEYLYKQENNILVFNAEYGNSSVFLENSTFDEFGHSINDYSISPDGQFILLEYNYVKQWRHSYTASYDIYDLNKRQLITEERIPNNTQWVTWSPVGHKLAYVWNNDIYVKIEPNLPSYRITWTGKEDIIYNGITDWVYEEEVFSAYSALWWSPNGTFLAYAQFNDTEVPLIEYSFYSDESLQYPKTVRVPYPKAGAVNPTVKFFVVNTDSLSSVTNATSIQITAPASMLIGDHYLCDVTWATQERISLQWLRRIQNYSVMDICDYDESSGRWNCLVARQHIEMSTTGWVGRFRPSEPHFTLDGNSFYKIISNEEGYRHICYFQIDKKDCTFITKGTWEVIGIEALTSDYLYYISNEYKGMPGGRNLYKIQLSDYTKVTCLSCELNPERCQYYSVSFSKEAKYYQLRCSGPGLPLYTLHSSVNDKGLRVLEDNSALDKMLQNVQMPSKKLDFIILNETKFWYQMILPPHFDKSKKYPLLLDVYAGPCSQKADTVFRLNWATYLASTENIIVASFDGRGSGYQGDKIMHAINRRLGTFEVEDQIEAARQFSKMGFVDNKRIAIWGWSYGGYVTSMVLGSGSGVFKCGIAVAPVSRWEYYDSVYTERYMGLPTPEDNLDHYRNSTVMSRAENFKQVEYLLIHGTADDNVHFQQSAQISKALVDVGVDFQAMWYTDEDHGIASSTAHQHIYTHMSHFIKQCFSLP

As to “Ac-Arg-(8-amino-3,6-dioxaoctanoyl)-D-Ala-L-boroPro (peptide)”, the Ki worked out at 0.0057 µM in assay [1] and 6.13 µM in assay [2]. Besides, the Selectivity, Ki (DPPIV)/Ki (APCE/FAP) in assay [3] amounted to 1080.

On to Ac-Arg-Gly-Gly-DL-boroPro (peptide), for which the Ki was 0.0229 µM in assay [1] and 0.341 µM in assay [2]. The Selectivity, Ki (DPPIV)/Ki (APCE/FAP) in assay [3] was 14.9.

On to Ac-Arg-Gly-Gly-L-boroPro (peptide), for which the Ki in assay [1] amounted to 0.0172 µM; in assay [2] it was 0.322 µM. Further, the Selectivity, Ki (DPPIV)/Ki (APCE/FAP) in assay [3] was 18.7.

As to Ac-Arg-peg-D-Ala-D-boroPro (peptide), the Ki in assay [1] was determined as 0.189 µM; in assay [2] it was 20.5 µM. For the same molecule, the Selectivity, Ki (DPPIV)/Ki (APCE/FAP) in assay [3] was found to be 108.

For the molecule “Ac-Arg-peg-D-Ala-DL(25:75%)-boroPro (peptide)”, the inhibition constant Ki in assay [1] is 0.0077 µM.

Take “Ac-Arg-peg-D-Ala-DL(50:50%)-boroPro (peptide)”: the Ki is 0.0095 µM in assay [1] and 11.2 µM in assay [2]. The Selectivity, Ki (DPPIV)/Ki (APCE/FAP) in assay [3] is 1180.

Turning to “Ac-Arg-peg-D-Ala-DL(75:25%)-boroPro (peptide)”, the Ki in assay [1] stood at 0.0183 µM.

As for Ac-Arg-peg-D-Asp-L-boroPro (peptide), the Ki in assay [1] is 1.38 µM; in assay [2] it was 7.13 µM. Further, in assay [3], the Selectivity, Ki (DPPIV)/Ki (APCE/FAP) was determined as 5.2.

On to Ac-Arg-peg-Gly-DL-boroPro (peptide), for which the values for the Ki in assay [1] and in assay [2] were 0.0031 µM and 1.15 µM, respectively. Further, in assay [3], the Selectivity, Ki (DPPIV)/Ki (APCE/FAP) was 371.

Ac-Arg-peg-Gly-L-boroPro (peptide): the values for the Ki in assay [1] and in assay [2] were 0.0018 µM and 0.44 µM, respectively. Further, in assay [3], the Selectivity, Ki (DPPIV)/Ki (APCE/FAP) stood at 244.

For Ac-Arg-peg-Ser-Gly-L-boroPro (peptide), the Ki in assay [1] was found to be 0.0027 µM; in assay [2], 0.861 µM. The Selectivity, Ki (DPPIV)/Ki (APCE/FAP) in assay [3] came to 319.

For the molecule Ac-Gly-L-boroPro (peptide), the Ki in assay [1] worked out at 0.0207 µM; in assay [2], 0.314 µM. In addition, the Selectivity, Ki (DPPIV)/Ki (APCE/FAP) in assay [3] was found to be 15.2.

As to FG-peg-G-pyrrolidide (peptide), the Ki in assay [4] was determined as 703 µM.

Take FR-peg-G-[r]fluoropyrrolidide (peptide): the Ki in assay [4] was found to be 53.8 µM.

The molecule FR-peg-G-[s]fluoropyrrolidide (peptide) yielded a Ki in assay [4] of 55.3 µM.

Molecule FR-peg-G-piperidide (peptide) yielded a Ki in assay [4] of 264 µM.

In assay [4], FR-peg-G-pyrrolidide (peptide) yielded a Ki of 67.7 µM.

B1: FR-peg-G-pipecolinyl-NQEQV (peptide)
peptide: FR[AEEA]G[Pip]NQEQV-OH
modifications: N-terminus assumed
SMILES: CC(C)[C@H](NC(=O)[C@H](CCC(N)=O)NC(=O)[C@H](CCC(=O)O)NC(=O)[C@H](CCC(N)=O)NC(=O)[C@H](CC(N)=O)NC(=O)[C@@H]1CCCCN1C(=O)CNC(=O)COCCOCCNC(=O)[C@H](CCCNC(=N)N)NC(=O)[C@@H](N)Cc1ccccc1)C(=O)O
B1 registered a Ki in assay [4] of 14.8 µM.

B2: FR-peg-G-pipecolinyl-NQGQV (peptide)
peptide: FR[AEEA]G[Pip]NQGQV-OH
modifications: N-terminus assumed
SMILES: CC(C)[C@H](NC(=O)[C@H](CCC(N)=O)NC(=O)CNC(=O)[C@H](CCC(N)=O)NC(=O)[C@H](CC(N)=O)NC(=O)[C@@H]1CCCCN1C(=O)CNC(=O)COCCOCCNC(=O)[C@H](CCCNC(=N)N)NC(=O)[C@@H](N)Cc1ccccc1)C(=O)O
In turn, B2 registered a Ki in assay [4] of 14.5 µM.

B3: FG-peg-G-pipecolinyl-NQEQV (peptide)
peptide: FG[AEEA]G[Pip]NQEQV-OH
modifications: N-terminus assumed
SMILES: CC(C)[C@H](NC(=O)[C@H](CCC(N)=O)NC(=O)[C@H](CCC(=O)O)NC(=O)[C@H](CCC(N)=O)NC(=O)[C@H](CC(N)=O)NC(=O)[C@@H]1CCCCN1C(=O)CNC(=O)COCCOCCNC(=O)CNC(=O)[C@@H](N)Cc1ccccc1)C(=O)O
With B3, the Ki in assay [4] is 57.1 µM.

B4: FRQLTS-G pipecolinyl-NQEQV (peptide)
peptide: FRQLTSG[Pip]NQEQV-OH
modifications: N-terminus assumed
SMILES: CC(C)C[C@H](NC(=O)[C@H](CCC(N)=O)NC(=O)[C@H](CCCNC(=N)N)NC(=O)[C@@H](N)Cc1ccccc1)C(=O)N[C@H](C(=O)N[C@@H](CO)C(=O)NCC(=O)N1CCCC[C@H]1C(=O)N[C@@H](CC(N)=O)C(=O)N[C@@H](CCC(N)=O)C(=O)N[C@@H](CCC(=O)O)C(=O)N[C@@H](CCC(N)=O)C(=O)N[C@H](C(=O)O)C(C)C)[C@@H](C)O
As to B4, the Ki in assay [4] amounted to 14 µM.

By Ki is commonly meant the equilibrium dissociation constant of an inhibitor or competing ligand from its target.

The values are drawn from US20110144037A1 (BOARD OF REGENTS OF THE UNIVERSITY OF OKLAHOMA, published 2011).
